Target: microtubule (MT) of HeLa cells (human (endogenous in HeLa)) (UniProt P68363)
Test: single-molecule live-cell imaging

UniProt P68363, sequence (P68363 whole entry): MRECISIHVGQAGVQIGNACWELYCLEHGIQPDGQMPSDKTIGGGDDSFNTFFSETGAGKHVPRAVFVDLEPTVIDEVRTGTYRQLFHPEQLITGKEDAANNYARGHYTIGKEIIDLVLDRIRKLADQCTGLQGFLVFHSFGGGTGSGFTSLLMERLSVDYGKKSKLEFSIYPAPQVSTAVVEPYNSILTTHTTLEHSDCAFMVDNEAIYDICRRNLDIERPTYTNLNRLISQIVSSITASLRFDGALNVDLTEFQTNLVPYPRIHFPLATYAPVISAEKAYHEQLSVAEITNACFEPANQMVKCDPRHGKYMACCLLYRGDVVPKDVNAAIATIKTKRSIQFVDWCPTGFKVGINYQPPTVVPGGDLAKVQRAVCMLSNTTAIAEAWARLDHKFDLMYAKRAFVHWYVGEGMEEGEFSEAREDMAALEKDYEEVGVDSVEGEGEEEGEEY

Substance “mouse dynein heavy chain (DYNC1H1) tagged with GFP (from UniProt Q9JHU4 1-4644) (natural protein)” has a koff of 1.7 s⁻¹ and a mean residence time of 0.55 s.

Reference: article doi:10.1101/2021.04.05.438428
